# Test results as given in patent US20140227295A1 (Bristol-Myers Squibb, published 2014).
# B1: conjugate (II-1), a conjugate of compound (III-1) and the anti-mesothelin antibody 6A4 (antibody, V domains shown)
# VH: QVHLVESGGGVVQPGRSLRLSCVASGITFRIYGMHWVRQAPGKGLEWVAVLWYDGSHEYYADSVKGRFTISRDNSKNTLYLQMNSLRAEDTAIYYCARDGDYYDSGSPLDYWGQGTLVTVSS
# VL: EIVLTQSPATLSLSPGERATLSCRASQSVSSYLAWYQQKPGQAPRLLIYDASNRATGIPARFSGSGSGTDFTLTISSLEPEDFAVYYCQQRSNWPLTFGGGTKVEIK
# modifications: lysine ε-amino groups thiolated with 2-iminothiolane and linked to the maleimide of tubulysin drug-linker compound (III-1); sites and chain not stated
# Target: mesothelin (UniProt Q13421 37-598, limits assumed)
# Assay: cell-based or functional assay
# Sequence of mesothelin (Q13421 other isoform, or with tags, fused parts or gaps limits assumed): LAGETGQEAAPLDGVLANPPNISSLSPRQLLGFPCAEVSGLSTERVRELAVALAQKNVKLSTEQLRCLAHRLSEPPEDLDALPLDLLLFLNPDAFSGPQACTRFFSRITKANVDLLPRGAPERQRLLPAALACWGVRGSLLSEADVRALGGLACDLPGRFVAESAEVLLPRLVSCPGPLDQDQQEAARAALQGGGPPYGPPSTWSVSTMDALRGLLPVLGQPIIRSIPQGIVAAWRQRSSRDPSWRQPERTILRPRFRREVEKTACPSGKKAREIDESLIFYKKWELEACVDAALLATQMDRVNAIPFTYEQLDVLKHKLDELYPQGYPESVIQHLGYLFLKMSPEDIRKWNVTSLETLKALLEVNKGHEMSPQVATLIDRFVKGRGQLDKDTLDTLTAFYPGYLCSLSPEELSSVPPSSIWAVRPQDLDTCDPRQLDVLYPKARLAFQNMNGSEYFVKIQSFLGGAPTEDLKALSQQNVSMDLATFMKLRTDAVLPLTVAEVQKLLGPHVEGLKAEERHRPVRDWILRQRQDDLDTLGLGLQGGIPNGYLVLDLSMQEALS
binder,measurement,value
B1,"EC50, inhibition of proliferation of N87 gastric cancer cells (3H thymidine incorporation assay)",0.2 nM
